Laboratory results reported in PMC3904923, “Pivoting between Calmodulin Lobes Triggered by Calcium in the Kv7.2/Calmodulin Complex” (PLoS ONE, 2014).

Experiments:
Details in all cases: both partners purified
dansylated calmodulin [1] = molecular target: T1, dansylated calmodulin (rat, UniProt P0DP30 1-149, dansyl group covalently bound to CaM (position not given)); experiment: other fluorescence titration; 12.5 nM D-CaM, ligand added incrementally, enhancement of dansyl emission; D-CaM binding buffer with 3.9 µM free Ca2+ (9.63 mM Ca2+, 2 mM Mg2+, 10 mM EGTA, pH 7.4); apparent affinity (EC50 of a Hill fit)
T1 construct: calmodulin, rat brain, NM_017326; also called D-CaM; dansyl-CaM

[2] = molecular target: T2, CaM C-lobe (residues 79–148) (human, UniProt P0DP23 80-149); experiment: other fluorescence titration; competition: 12.5 nM D-CaM mixed with helix A (65.6 nM) or helix B (42.6 nM), isolated lobe added incrementally; with Ca2+; one site Hill fit, Kd derived assuming 1:1 binding
T2 construct: human calmodulin C-lobe, residues 79-148; cDNA from the group of Daniel L. Minor Jr; also called C-domain; CaM 79–148; source: produced as described previously [28], purified

[3] = molecular target: T3, CaM N-lobe (residues 1–78) (human, UniProt P0DP23 2-79); experiment: as above
T3 construct: human calmodulin N-lobe, residues 1-78; cDNA from the group of Daniel L. Minor Jr; also called N-domain; CaM 1–78; source: produced as described previously [28], purified

[4] = molecular target: T2, CaM C-lobe (residues 79–148); experiment: other fluorescence titration; competition: 12.5 nM D-CaM mixed with helix A (46.4 nM) or helix B (20.1 nM), isolated lobe added incrementally; no Ca2+; one site Hill fit, Kd derived assuming 1:1 binding
[5] = molecular target: T3, CaM N-lobe (residues 1–78); experiment: as above
dansylated calmodulin [6] = molecular target: T1, dansylated calmodulin; experiment: other fluorescence titration; 12.5 nM D-CaM, ligand added incrementally, enhancement of dansyl emission; 25 mM Tris-HCl, 120 mM KCl, 5 mM NaCl, 2 mM MgCl2, 10 mM EGTA, pH 7.4; no free Ca2+; apparent affinity (EC50 of a Hill fit)

B1: Kv7.2 helix A (hA residues G310–T359) (domain or fragment, human, UniProt O43526 310-359, looked up)
chain: GILGSGFALKVQEQHRQKHFEKRRNPAAGLIQSAWRFYATNLSRTDLHST
notes: helix A of human Kv7.2 (KCNQ2) Y15065, residues G310-T359; also called segment A; source: E. coli BL21-DE3, purified (GSH sepharose)
EC50 (dansylated calmodulin [1]): 65.6 nM
Kd [2]: 17 nM
Kd [3]: 267 nM
Kd [4]: 169 nM
Kd [5]: 530 nM
EC50 (dansylated calmodulin [6]): 46.4 nM
